This note sets out measurements from article PMC10855146, “Secondary Modification of S100B Influences Anti Amyloid-β Aggregation Activity and Alzheimer’s Disease Pathology” (International Journal of Molecular Sciences, 2024).

Data set [1] deals with the molecule itself. Put plainly: SEC; analytical size-exclusion chromatography, Superdex 75 Tricorn, room temperature, 1 mL/min, 50 mM TrisHCl pH 7.4, imidazole as internal standard.
For data set [2], the target named is Human recombinant amyloid beta 42 (human, UniProt P05067 672-713). Put plainly: cell-based or functional assay.
Chain of Human recombinant amyloid beta 42 (P05067 672-713): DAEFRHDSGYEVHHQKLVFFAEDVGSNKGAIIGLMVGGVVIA

B1: Human S100B (natural protein, UniProt P04271 1-92, looked up)
chain: MSELEKAMVALIDVFHQYSGREGDKHKLKKSELKELINNELSHFLEEIKEQEVVDKVMETLDNDGDGECDFQEFMAFVAMVTTACHEFFEHE
notes: S100B, human, recombinant; also called non-oxidized S100B; unmodified S100B; source: apo form eluted on Superdex S75
In the case of B1, in data set [1], the stoichiometry N (as a rule, a count of units in the complex or per binding partner) turned out to be 2. Moreover, the “half-time of ThT-monitored aggregation of monomeric Aβ42 (5 μM) with a 10-fold excess of S100B (0.9 h for Aβ42 alone)” value in data set [2] amounted to 4.5 h.

B2: Oxidized S100B (HClO-treated recombinant human S100B) (natural protein, UniProt P04271 1-92, looked up)
chain: MSELEKAMVALIDVFHQYSGREGDKHKLKKSELKELINNELSHFLEEIKEQEVVDKVMETLDNDGDGECDFQEFMAFVAMVTTACHEFFEHE
modifications: up to three methionine sulfoxide residues per S100Box monomer (positions not given); no Cys oxidation
notes: S100B, human, recombinant, oxidized with HClO; also called S100Box; S100ox
For B2, the “stoichiometry N” value in data set [1] stood at 2. In addition, in data set [2], the “blocking of Aβ42 fibril elongation in seeded ThT aggregation assays (5 μM Aβ42, 4-fold excess of S100Box, 0.04 µM pre-formed fibrils), against S100B” value was approximately 3 fold against S100B and the “half-time of ThT-monitored aggregation of monomeric Aβ42 (5 μM) with a 10-fold excess of S100Box (0.9 h for Aβ42 alone)” value turned out to be 8.5 h.
